Laboratory results reported in patent US20110183922A1.

Target: rat AChEt subunit (rat) (UniProt P37136)
Assay: cell-based or functional assay

rat AChEt subunit (rat), sequence (P37136 32-614 limits assumed): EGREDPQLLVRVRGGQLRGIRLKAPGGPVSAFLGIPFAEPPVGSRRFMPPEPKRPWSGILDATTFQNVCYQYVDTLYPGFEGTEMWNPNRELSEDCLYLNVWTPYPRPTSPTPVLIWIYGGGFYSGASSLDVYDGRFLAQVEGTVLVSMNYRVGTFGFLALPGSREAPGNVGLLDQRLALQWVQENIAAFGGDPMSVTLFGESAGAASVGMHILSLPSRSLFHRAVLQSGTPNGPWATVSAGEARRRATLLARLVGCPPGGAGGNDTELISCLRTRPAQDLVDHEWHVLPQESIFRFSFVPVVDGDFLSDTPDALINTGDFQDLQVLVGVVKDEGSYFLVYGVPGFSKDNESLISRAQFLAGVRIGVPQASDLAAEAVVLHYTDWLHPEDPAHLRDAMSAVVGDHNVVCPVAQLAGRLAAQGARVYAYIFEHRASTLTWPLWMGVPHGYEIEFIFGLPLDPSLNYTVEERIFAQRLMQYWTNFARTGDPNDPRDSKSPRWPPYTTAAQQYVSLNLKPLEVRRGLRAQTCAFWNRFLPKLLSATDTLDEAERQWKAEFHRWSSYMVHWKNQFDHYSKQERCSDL

## ColQ PRAD-GPI: PRAD encoding N-terminal domain of ColQ (Qn) linked to the C-terminal domain of the GPI-anchored AChE form
  cell-associated AChE activity / tetramerization (velocity sedimentation, COS cells): 100 % increase
